Test results published in article PMC10663602, “The structure of the teleost Immunoglobulin M core provides insights on polymeric antibody evolution, assembly, and function” (Nature Communications, 2023).

T1: hFcµ-tFcµ-chi4 (human | Oncorhynchus mykiss (rainbow …))
T1 chain: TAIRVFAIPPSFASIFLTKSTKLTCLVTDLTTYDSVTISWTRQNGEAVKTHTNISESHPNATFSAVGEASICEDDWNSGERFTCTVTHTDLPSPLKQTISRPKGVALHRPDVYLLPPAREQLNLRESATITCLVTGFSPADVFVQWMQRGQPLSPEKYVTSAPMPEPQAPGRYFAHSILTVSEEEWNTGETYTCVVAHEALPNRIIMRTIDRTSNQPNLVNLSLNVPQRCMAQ

B1: hFcµ-tFcµ-chi4 (other)
chain: T1 chain
modifications: N-glycosylated; probable tetramer (P1), also a monomer fraction (P2) / N-glycosylated; probable tetramer (P1), also a monomer fraction (P2)
B2: full-length hFcµ expressed without JC (domain or fragment)
chain: TAIRVFAIPPSFASIFLTKSTKLTCLVTDLTTYDSVTISWTRQNGEAVKTHTNISESHPNATFSAVGEASICEDDWNSGERFTCTVTHTDLPSPLKQTISRPKGVALHRPDVYLLPPAREQLNLRESATITCLVTGFSPADVFVQWMQRGQPLSPEKYVTSAPMPEPQAPGRYFAHSILTVSEEEWNTGETYTCVVAHEALPNRVTERTVDKSTGKPTLYNVSLVMSDTAGTCY
modifications: N-glycosylated, disulfide-linked hexamer of Fc dimers without J chain. Secretory form with tailpiece. N-terminus taken at TAIRVF (T343 in the paper's numbering), as in the printed chimeras; entity …

Tests used:
hFcµ-tFcµ-chi4 = target: T1, hFcµ-tFcµ-chi4; test: SEC-MALS; Superose 6 Increase 10/300, TBS buffer, 0.5 ml/min, 25 °C; 100 uL of protein at approximately 2 g/L; pIg peaks isolated from mIg by SEC before the analysis; settings: both partners purified
[1] = target: full-length hFcµ expressed without JC (human, UniProt P01871 106-433); test: as above; settings: both partners purified
Chain of full-length hFcµ expressed without JC (P01871 106-433): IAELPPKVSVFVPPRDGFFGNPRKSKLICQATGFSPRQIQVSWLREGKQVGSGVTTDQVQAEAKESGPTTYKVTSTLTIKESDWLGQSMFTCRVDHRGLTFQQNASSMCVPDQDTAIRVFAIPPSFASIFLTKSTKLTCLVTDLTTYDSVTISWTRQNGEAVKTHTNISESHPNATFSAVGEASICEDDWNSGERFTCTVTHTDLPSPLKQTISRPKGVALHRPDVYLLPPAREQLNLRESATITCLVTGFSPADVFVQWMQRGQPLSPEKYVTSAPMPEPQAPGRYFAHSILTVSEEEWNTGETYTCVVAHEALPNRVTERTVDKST

Row | Binder | stoichiometry N (hFcµ-tFcµ-chi4) | stoichiometry N [1]
1 | B1 | ~4 | 
2 | B2 |  | 6
